± gives the uncertainty stated by the source.

A short description of the series: self-splicing fitness, log relative to wild type (ln ratio); higher = more splicing; Tetrahymena group I intron in knt gene, E. coli kanamycin selection, DiMSum; sequences stand for … in CUCUCU…GGAGGGAAAAGUUAUCAGGCAUGCACCUGGUAGCUAGUCUUUAAACCAAUAGAUUGCAUCGGUUUAAAAGGCAAGACCGUCAAAUUGCGGGAAAGGGGUCAACAGCCGUUCAGUACCAAGUCUCAGGGGAAACUUUGAGAUGGCCUUGCAAAGGGUAUGGUAAUAAGCUGACGGACAUGGUCCUAACCACGCAGCCAAGUCCUAAGUCAACAGAUCUUCUGUUGAUAUGGAUGCAGUUCACAGACUAAAUGUCGGUCGGGGAAGAUGUAUUCUUCUCAUAAGAUAUAGUCGGACCUCUCCUUAAUGGGAGCUAGCGGAUGAAGUGAUGCAACACUGGAGCCGCUGGGAACUAAUUUGUAUGCGAAAGUAUAUUGAUUAGUUUUGGAGUACUCGUGGUCG
The gist of the method: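 Six replicate transformations of E. coli BL21(DE3) with a pET-22b(+) library were grown overnight at 37°C or 30°C. The library randomised all eight P1ex-region intron nucleotides, the intron lying in the knt kanamycin-resistance gene, and plates were LB agar with or without 25 μg/mL kanamycin plus 100 μg/mL carbenicillin, 50 μM IPTG and 0.2% rhamnose. Pooled colonies were amplicon-sequenced on an Illumina HiSeq 2500, and fitness is the DiMSum error-weighted combination of wild-type-normalised replicate fold changes, kanamycin versus none.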

For GUCUAGCAAUAUUACGCACG, the “self-splicing fitness (ln)” value by setting is: (30 °C) -1.27 ± 0.18; (37 °C) -1.14 ± 0.18. The corresponding values for AAGAAGCAAUAUUACGUCCG are -0.7 ± 0.073 and -0.283 ± 0.099. The corresponding values for UAGUAGCAAUAUUACGGAUA are -2.7 ± 0.26 and -0.444 ± 0.14. The corresponding values for AAAUAGCAAUAUUACGCUCC are -1.48 ± 0.31 and 0.174 ± 0.42. As for UAAUAGCAAUAUUACGUGCG, the “self-splicing fitness (ln)” value is, setting by setting: (30 °C) 0.0578 ± 0.065; (37 °C) -0.0439 ± 0.091. For the sequence CCUCAGCAAUAUUACGAAGG, the “self-splicing fitness (ln)” value is -3.6 ± 0.34 (30 °C) and -1.84 ± 0.4 (37 °C). With AGCGAGCAAUAUUACGAACU, the “self-splicing fitness (ln)” value is -2.3 ± 0.42 (30 °C) and -1.17 ± 0.29 (37 °C).

Take CGCUAGCAAUAUUACGGAUG: the “self-splicing fitness (ln)” value by setting is: (30 °C) -1.13 ± 0.075; (37 °C) -0.108 ± 0.096. For the sequence CCGUAGCAAUAUUACGUCAA, the “self-splicing fitness (ln)” value (37 °C) is -1.2 ± 0.27.

In the case of UCUUAGCAAUAUUACGGGUA, the “self-splicing fitness (ln)” value (30 °C) is -1.46 ± 0.076 and the “self-splicing fitness (ln)” value (37 °C) is -0.741 ± 0.084. As to CUAGAGCAAUAUUACGUCGA, the “self-splicing fitness (ln)” value runs as follows: (30 °C) -3.94 ± 0.28; (37 °C) -2.34 ± 0.28. Consider GGGCAGCAAUAUUACGGUAA, for which the “self-splicing fitness (ln)” value runs as follows: (30 °C) -1.69 ± 0.27; (37 °C) -0.663 ± 0.19.

On to CACUAGCAAUAUUACGACCU, for which the “self-splicing fitness (ln)” value is -2.03 ± 0.28 (30 °C) and -1.6 ± 0.18 (37 °C).

On to AGCAAGCAAUAUUACGUCCA, for which the “self-splicing fitness (ln)” value (30 °C) is -1.62 ± 0.12 and the “self-splicing fitness (ln)” value (37 °C) was found to be 0.0058 ± 0.17.

Regarding CCGUAGCAAUAUUACGGCCG, the “self-splicing fitness (ln)” value by setting is: (30 °C) -1.05 ± 0.16; (37 °C) -0.466 ± 0.18. On to GAGGAGCAAUAUUACGUCAA, for which the “self-splicing fitness (ln)” value (30 °C) was -2.72 ± 0.31.

Consider UGAUAGCAAUAUUACGUUGA, for which the “self-splicing fitness (ln)” value runs as follows: (30 °C) -3.42 ± 0.19; (37 °C) -1.91 ± 0.14. For GGCUAGCAAUAUUACGGCAA, the “self-splicing fitness (ln)” value by setting is: (30 °C) 0.218 ± 0.07; (37 °C) -0.682 ± 0.086. As for AGAGAGCAAUAUUACGUAUG, the “self-splicing fitness (ln)” value (30 °C) is -4.21 ± 0.24 and the “self-splicing fitness (ln)” value (37 °C) was -3.33 ± 0.27. For AGACAGCAAUAUUACGGAGG, the “self-splicing fitness (ln)” value by setting is: (30 °C) -3.35 ± 0.18; (37 °C) -2.48 ± 0.23. As for UGGAAGCAAUAUUACGUAGU, the “self-splicing fitness (ln)” value (30 °C) was -2.9 ± 0.27 and the “self-splicing fitness (ln)” value (37 °C) is -1.41 ± 0.2.

In the case of CCGAAGCAAUAUUACGUGGG, the “self-splicing fitness (ln)” value was -3.82 ± 0.14 (30 °C) and -2.39 ± 0.14 (37 °C).

Turning to CCUUAGCAAUAUUACGACGG, the “self-splicing fitness (ln)” value is -2.31 ± 0.17 (30 °C) and -2.95 ± 0.3 (37 °C). For GGUCAGCAAUAUUACGCUCA, the “self-splicing fitness (ln)” value by setting is: (30 °C) -1.15 ± 0.12; (37 °C) -0.0519 ± 0.17. The corresponding values for AAAGAGCAAUAUUACGGGCG are -2.3 ± 0.14 and -3.1 ± 0.47. Turning to UAAUAGCAAUAUUACGCAGA, the “self-splicing fitness (ln)” value (37 °C) was -0.288 ± 0.16.

Turning to UUCUAGCAAUAUUACGCGUG, the “self-splicing fitness (ln)” value is, setting by setting: (30 °C) -2.22 ± 0.12; (37 °C) -0.708 ± 0.1. With CCGCAGCAAUAUUACGGUCU, the “self-splicing fitness (ln)” value is, setting by setting: (30 °C) -4.37 ± 0.2; (37 °C) -3.65 ± 0.23. ACGAAGCAAUAUUACGGUCU: the “self-splicing fitness (ln)” value was -0.57 ± 0.073 (30 °C) and -0.225 ± 0.097 (37 °C). The corresponding values for UCGUAGCAAUAUUACGCAAU are -3.7 ± 0.47 and -1.99 ± 0.31. The corresponding values for CCUGAGCAAUAUUACGGGCG are -2.62 ± 0.23 and -2.1 ± 0.18. As to AUUGAGCAAUAUUACGUAGG, the “self-splicing fitness (ln)” value (30 °C) is -3.16 ± 0.37 and the “self-splicing fitness (ln)” value (37 °C) turned out to be 0.0777 ± 0.29. As for UCAGAGCAAUAUUACGUGCU, the “self-splicing fitness (ln)” value is -3.09 ± 0.2 (30 °C) and -3.07 ± 0.28 (37 °C). UGGAAGCAAUAUUACGUGCA: the “self-splicing fitness (ln)” value is, setting by setting: (30 °C) -0.0243 ± 0.057; (37 °C) -0.187 ± 0.067. Take UAACAGCAAUAUUACGUUUG: the “self-splicing fitness (ln)” value (30 °C) was -2.13 ± 0.079 and the “self-splicing fitness (ln)” value (37 °C) is -0.759 ± 0.081. The corresponding values for AUACAGCAAUAUUACGCUUG are -1.35 ± 0.08 and -0.94 ± 0.1. The corresponding values for CGCAAGCAAUAUUACGCACC are -1.54 ± 0.29 and -0.0713 ± 0.4. The corresponding values for AAUCAGCAAUAUUACGCUAU are -0.347 ± 0.084 and 0.0833 ± 0.12. For AUUUAGCAAUAUUACGUAUC, the “self-splicing fitness (ln)” value (37 °C) was -2.15 ± 0.32.

In the case of GUCGAGCAAUAUUACGCAUC, the “self-splicing fitness (ln)” value (30 °C) is -2.31 ± 0.26 and the “self-splicing fitness (ln)” value (37 °C) was -0.574 ± 0.22.

On to GGUGAGCAAUAUUACGUCCA, for which the “self-splicing fitness (ln)” value runs as follows: (30 °C) -2.91 ± 0.24; (37 °C) -2.07 ± 0.096. The corresponding values for UUUAAGCAAUAUUACGCUGG are -2.26 ± 0.21 and -0.317 ± 0.18. The corresponding values for UGGAAGCAAUAUUACGGCCC are -0.223 ± 0.15 and 0.256 ± 0.18. For CUCCAGCAAUAUUACGAAUA, the “self-splicing fitness (ln)” value (30 °C) was -3.91 ± 0.47 and the “self-splicing fitness (ln)” value (37 °C) is -2.54 ± 0.28. The corresponding values for GAACAGCAAUAUUACGAUCU are -1.33 ± 0.055 and -0.287 ± 0.078. The corresponding values for GAUUAGCAAUAUUACGGAAG are -2.01 ± 0.24 and -2.18 ± 0.28. The corresponding values for AUCUAGCAAUAUUACGGACU are 0.0775 ± 0.11 and 0.443 ± 0.12. Turning to GUCGAGCAAUAUUACGUGGC, the “self-splicing fitness (ln)” value was -3.63 ± 0.2 (30 °C) and -1.09 ± 0.17 (37 °C). Take ACUCAGCAAUAUUACGGUAG: the “self-splicing fitness (ln)” value (30 °C) was -3.73 ± 0.13 and the “self-splicing fitness (ln)” value (37 °C) was -2.92 ± 0.15.

In the case of UUAUAGCAAUAUUACGCUCC, the “self-splicing fitness (ln)” value (30 °C) was -2.11 ± 0.24 and the “self-splicing fitness (ln)” value (37 °C) was found to be 0.501 ± 0.45. Take UUUCAGCAAUAUUACGCCGA: under “37 °C”, the “self-splicing fitness (ln)” value is -0.923 ± 0.44. With GGAUAGCAAUAUUACGGAUC, the “self-splicing fitness (ln)” value reads like this: (30 °C) -0.869 ± 0.084; (37 °C) -0.269 ± 0.11. As for UAGAAGCAAUAUUACGUGUA, the “self-splicing fitness (ln)” value was -1.95 ± 0.11 (30 °C) and -0.392 ± 0.09 (37 °C). For UUGUAGCAAUAUUACGCUCC, the “self-splicing fitness (ln)” value (30 °C) is -2.12 ± 0.43. As to CCACAGCAAUAUUACGUUGU, the “self-splicing fitness (ln)” value runs as follows: (30 °C) -2.37 ± 0.076; (37 °C) -2.83 ± 0.13. The corresponding values for CUAUAGCAAUAUUACGGAAG are -1.87 ± 0.12 and -0.957 ± 0.13. With CUGAAGCAAUAUUACGGAGC, the “self-splicing fitness (ln)” value (37 °C) was -0.931 ± 0.49.

Turning to AGAGAGCAAUAUUACGGUGU, the “self-splicing fitness (ln)” value is -3.59 ± 0.25 (30 °C) and -2.97 ± 0.22 (37 °C). For CGUGAGCAAUAUUACGUGCC, the “self-splicing fitness (ln)” value (37 °C) is -1.78 ± 0.39. On to CGCCAGCAAUAUUACGCACG, for which the “self-splicing fitness (ln)” value is, setting by setting: (30 °C) -1.66 ± 0.11; (37 °C) -1.47 ± 0.17. The corresponding values for GUAUAGCAAUAUUACGAUUA are -1.14 ± 0.16 and -1.4 ± 0.15. The corresponding values for GAAGAGCAAUAUUACGGCUU are -0.88 ± 0.14 and 0.407 ± 0.13. For the sequence CCAUAGCAAUAUUACGCCGC, the “self-splicing fitness (ln)” value (30 °C) is -1.47 ± 0.21.

As for UAUUAGCAAUAUUACGAUUC, the “self-splicing fitness (ln)” value is, setting by setting: (30 °C) -1.88 ± 0.16; (37 °C) -0.062 ± 0.18. Consider ACCCAGCAAUAUUACGGUCC, for which the “self-splicing fitness (ln)” value is, setting by setting: (30 °C) -1.61 ± 0.085; (37 °C) -1.4 ± 0.12.

As to UAACAGCAAUAUUACGUGUA, the “self-splicing fitness (ln)” value by setting is: (30 °C) -1.6 ± 0.056; (37 °C) -0.0928 ± 0.06.

On to GGAGAGCAAUAUUACGAGAU, for which the “self-splicing fitness (ln)” value runs as follows: (30 °C) -2.5 ± 0.36; (37 °C) -2.14 ± 0.34. The corresponding values for AAUAAGCAAUAUUACGUCAG are -3.34 ± 0.18 and -1.82 ± 0.13. The corresponding values for CGUAAGCAAUAUUACGCAUA are -3.73 ± 0.34 and -3.16 ± 0.21. The corresponding values for GAAGAGCAAUAUUACGACGC are -1.55 ± 0.15 and 0.291 ± 0.16. Regarding CGGAAGCAAUAUUACGGCUU, the “self-splicing fitness (ln)” value by setting is: (30 °C) -3.34 ± 0.3; (37 °C) -2.75 ± 0.36. The corresponding values for CUCCAGCAAUAUUACGCGCU are -4.33 ± 0.26 and -2.2 ± 0.2. The corresponding values for GGGCAGCAAUAUUACGACCU are -1.88 ± 0.28 and -1.26 ± 0.44. On to CCGCAGCAAUAUUACGCCUC, for which the “self-splicing fitness (ln)” value was -2.79 ± 0.12 (30 °C) and -2.04 ± 0.14 (37 °C). As to UCUGAGCAAUAUUACGUGUC, the “self-splicing fitness (ln)” value (30 °C) was -4.14 ± 0.32.

In the case of ACCGAGCAAUAUUACGGAUU, the “self-splicing fitness (ln)” value runs as follows: (30 °C) -3.51 ± 0.16; (37 °C) -1.94 ± 0.16. On to GGAAAGCAAUAUUACGAAGU, for which the “self-splicing fitness (ln)” value reads like this: (30 °C) -2.79 ± 0.16; (37 °C) -1.97 ± 0.18.

Consider CGAAAGCAAUAUUACGAUCC, for which the “self-splicing fitness (ln)” value is -1.03 ± 0.16 (30 °C) and -0.798 ± 0.17 (37 °C).
